We go through ten molecules from patent US20250388664A1 (BIOARCTIC, published 2025).

The Kd is the free concentration of one partner at which half of the binding sites on the other are occupied at equilibrium, for simple one-to-one binding. One may read the koff as the rate constant with which the complex falls apart. As a reminder, the kon is a measure of how fast the partners come together. Low readings indicate slow association, high ones fast association.

In assay [1] the target is T1, ectodomain of human TfR1 (His10-hTfR1; SEQ ID NO:110) (human, UniProt P02786 89-760).
T1 construct: also called ectodomain of hTfR1
T1 sequence (P02786 other isoform, or with tags, fused parts or gaps): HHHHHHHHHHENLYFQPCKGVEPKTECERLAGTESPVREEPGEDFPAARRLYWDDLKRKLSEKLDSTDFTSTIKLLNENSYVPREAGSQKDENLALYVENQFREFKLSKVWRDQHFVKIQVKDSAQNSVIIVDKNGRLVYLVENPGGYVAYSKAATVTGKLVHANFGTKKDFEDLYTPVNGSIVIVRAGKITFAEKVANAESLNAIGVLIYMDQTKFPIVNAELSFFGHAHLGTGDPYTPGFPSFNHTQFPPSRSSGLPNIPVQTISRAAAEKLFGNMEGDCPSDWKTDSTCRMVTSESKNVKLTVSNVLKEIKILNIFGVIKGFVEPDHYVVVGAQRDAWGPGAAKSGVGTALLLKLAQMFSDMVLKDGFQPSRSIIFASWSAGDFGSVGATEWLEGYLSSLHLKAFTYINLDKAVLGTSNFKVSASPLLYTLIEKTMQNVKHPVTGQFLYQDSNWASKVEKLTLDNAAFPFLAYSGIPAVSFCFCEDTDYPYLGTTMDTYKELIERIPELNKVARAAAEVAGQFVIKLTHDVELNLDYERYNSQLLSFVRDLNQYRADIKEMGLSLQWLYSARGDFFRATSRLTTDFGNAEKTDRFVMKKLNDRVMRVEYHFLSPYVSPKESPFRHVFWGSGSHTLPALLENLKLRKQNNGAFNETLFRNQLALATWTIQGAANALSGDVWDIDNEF
Description: BLI: His-tagged Fab loaded from cell supernatant on anti-Fab sensors, hTfR1 ectodomain at 3.75 µg/ml in solution, 300 s association, 300 s dissociation. An excerpt:
The generated alanine variants were expressed as single mutant, His-tagged Fabs by transient transfection of Chinese hamster ovary cells (ExpiCHO; Thermo Fisher Scientific) according to the manufacturer's instructions. Clarified media, into which the Fabs had been secreted, was used to assess binding to hTfR1 by BLI (Octet RED384, ForteBio). The expressed Fabs were loaded from the cell supernatants onto anti-Fab biosensors during 240 s. Thereafter, association of ectodomain of hTfR1 (SEQ ID NO:110), diluted to 3.75 μg/ml in 1× Kinetics buffer (ForteBio), to the loaded sensors was measured for 300 s, followed by dissociation for 300 s.
Background: In BLI a coated tip is dipped into the sample, and binding shifts an interference pattern.

The target of a further assay is T2, AβpE3-40 monomer (UniProt P05067 674-711, pyroglutamate at position 3 (N-terminal residue)).
T2 construct: range 3-40 (Aβ numbering); Synthetic peptide (Bachem/Anaspec), verified monomeric by SEC; also called monomeric AβpE3-40
T2 sequence (P05067 674-711): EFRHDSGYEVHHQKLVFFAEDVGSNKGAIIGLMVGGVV
As to the kind of experiment: SPR, antibody immobilised, monomer injected, 1:1 fit. For orientation: SPR reads the build-up and loss of mass on a sensor chip optically.

Assay [2] deals with T3, truncated hTfR1 of SEQ ID NO:122 (human, UniProt P02786 122-760).
T3 construct: also called human TfR1; Human TfR1
Description: SPR, FLAG-captured TfR1, bispecific injected, 1:1 fit. The method, then:
(§1) Binding of the purified bispecific binding molecules produced in Example 47 to human and cynomolgus TfR1 was evaluated using SPR on a Biacore 8K instrument (Cytiva). […] The interaction was measured using the single cycle kinetics method with a contact time of 120 s at a flow rate of 30 μl/min followed by a dissociation time of 600 s. Regeneration of the surface between cycles was done by injecting 10 mM glycine-HCl, pH 1.7. The binding data was fitted to a 1:1 interaction model. The tested molecules were diluted in HBS-EP+ (Cytiva, #BR100669). Experiments were performed at 25° C.

Assay [3] deals with T4, truncated cTfR1 of SEQ ID NO:123 (cynomolgus monkey, UniProt Q5RDH6 122-760 (Pongo abelii entry)).
T4 construct: also called cynomolgus TfR1
T4 chain: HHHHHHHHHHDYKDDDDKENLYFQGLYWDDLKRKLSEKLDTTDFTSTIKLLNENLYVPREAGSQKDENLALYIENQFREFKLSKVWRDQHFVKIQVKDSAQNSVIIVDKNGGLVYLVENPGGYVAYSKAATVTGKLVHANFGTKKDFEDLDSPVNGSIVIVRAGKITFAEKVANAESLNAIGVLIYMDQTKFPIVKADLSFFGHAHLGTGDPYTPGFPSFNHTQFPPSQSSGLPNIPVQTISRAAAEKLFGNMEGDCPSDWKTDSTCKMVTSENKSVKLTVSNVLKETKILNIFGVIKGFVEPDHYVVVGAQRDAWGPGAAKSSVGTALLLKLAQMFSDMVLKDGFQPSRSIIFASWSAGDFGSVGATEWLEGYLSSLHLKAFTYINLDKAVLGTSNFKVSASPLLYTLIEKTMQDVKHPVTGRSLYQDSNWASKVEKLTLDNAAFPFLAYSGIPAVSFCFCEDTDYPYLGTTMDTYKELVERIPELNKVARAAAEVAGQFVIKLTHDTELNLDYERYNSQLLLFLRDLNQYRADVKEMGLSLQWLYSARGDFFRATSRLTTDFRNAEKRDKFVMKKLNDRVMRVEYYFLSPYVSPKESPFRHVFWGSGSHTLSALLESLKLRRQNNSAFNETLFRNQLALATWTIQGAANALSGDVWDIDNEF
The description is as above. The method, then:
as §1

B1: h26D3 variant HC1 Fab (Fab, V domains shown)
VH: EVQLVQSGAEVKKPGSSVKVSCKASGYIFTAYNMDWVRQAPGQGLEWIGDINPDYDTTSYNEKFKGRATLTVDKSTSTAYMELSSLRSEDTAVYYCARGGYSGSSYYHPMDYWGQGTLVTVSS
VL: DIQMTQSPSSVSASVGDRVTITCKSSQSLLYSTNQKNYLAWYQQKPGKAPKLLIYWASTRESGVPSRFSGSGSGTDFTLTISSLQPEDFATYYCQQYFIYPRTFGQGTKVEIK
notes: Single-mutant His-tagged Fab; also called D31A
For B1, in assay [1], the binding result was “binds”.

B2: h26D3 variant LC4 Fab (Fab, V domains shown)
VH: EVQLVQSGAEVKKPGSSVKVSCKASGYIFTDYNMDWVRQAPGQGLEWIGDINPDYDTTSYNEKFKGRATLTVDKSTSTAYMELSSLRSEDTAVYYCARGGYSGSSYYHPMDYWGQGTLVTVSS
VL: DIQMTQSPSSVSASVGDRVTITCKSSQSLLYSTNQKNYLAWYQQKPGKAPKLLIYAASTRESGVPSRFSGSGSGTDFTLTISSLQPEDFATYYCQQYFIYPRTFGQGTKVEIK
notes: Single-mutant His-tagged Fab; also called W56A
Take B2: the binding result in assay [1] is “binds”.

B3: h26D3 variant HC13 Fab (Fab, V domains shown)
VH: EVQLVQSGAEVKKPGSSVKVSCKASGYIFTDYNMDWVRQAPGQGLEWIGDINPDYDTTSYNEKFKGRATLTVDKSTSTAYMELSSLRSEDTAVYYCARGGYSGSSYYHPMDAWGQGTLVTVSS
VL: DIQMTQSPSSVSASVGDRVTITCKSSQSLLYSTNQKNYLAWYQQKPGKAPKLLIYWASTRESGVPSRFSGSGSGTDFTLTISSLQPEDFATYYCQQYFIYPRTFGQGTKVEIK
notes: Single-mutant His-tagged Fab; also called Y112A
For the molecule B3, the binding result in assay [1] is reported as “binds”.

B4: h26D3 variant LC2 Fab (Fab, V domains shown)
VH: EVQLVQSGAEVKKPGSSVKVSCKASGYIFTDYNMDWVRQAPGQGLEWIGDINPDYDTTSYNEKFKGRATLTVDKSTSTAYMELSSLRSEDTAVYYCARGGYSGSSYYHPMDYWGQGTLVTVSS
VL: DIQMTQSPSSVSASVGDRVTITCKSSQSLLYSTNQKNALAWYQQKPGKAPKLLIYWASTRESGVPSRFSGSGSGTDFTLTISSLQPEDFATYYCQQYFIYPRTFGQGTKVEIK
notes: Single-mutant His-tagged Fab; also called Y38A
Regarding B4, the binding result in assay [1] is recorded as “binds”.

B5: h26D3 variant HC9 Fab (Fab, V domains shown)
VH: EVQLVQSGAEVKKPGSSVKVSCKASGYIFTDYNMDWVRQAPGQGLEWIGDINPDYDTTSYNEKFKGRATLTVDKSTSTAYMELSSLRSEDTAVYYCARGGASGSSYYHPMDYWGQGTLVTVSS
VL: DIQMTQSPSSVSASVGDRVTITCKSSQSLLYSTNQKNYLAWYQQKPGKAPKLLIYWASTRESGVPSRFSGSGSGTDFTLTISSLQPEDFATYYCQQYFIYPRTFGQGTKVEIK
notes: Single-mutant His-tagged Fab; also called Y101A
B5: in assay [1], the binding result is reported as “binds”.

B6: h26D3 variant HC12 Fab (Fab, V domains shown)
VH: EVQLVQSGAEVKKPGSSVKVSCKASGYIFTDYNMDWVRQAPGQGLEWIGDINPDYDTTSYNEKFKGRATLTVDKSTSTAYMELSSLRSEDTAVYYCARGGYSGSSYYHPMAYWGQGTLVTVSS
VL: DIQMTQSPSSVSASVGDRVTITCKSSQSLLYSTNQKNYLAWYQQKPGKAPKLLIYWASTRESGVPSRFSGSGSGTDFTLTISSLQPEDFATYYCQQYFIYPRTFGQGTKVEIK
notes: Single-mutant His-tagged Fab; also called D111A
As for B6, the binding result in assay [1] is given as “binds”.

B7: h26D3 variant LC3 Fab (Fab, V domains shown)
VH: EVQLVQSGAEVKKPGSSVKVSCKASGYIFTDYNMDWVRQAPGQGLEWIGDINPDYDTTSYNEKFKGRATLTVDKSTSTAYMELSSLRSEDTAVYYCARGGYSGSSYYHPMDYWGQGTLVTVSS
VL: DIQMTQSPSSVSASVGDRVTITCKSSQSLLYSTNQKNYLAWYQQKPGKAPKLLIAWASTRESGVPSRFSGSGSGTDFTLTISSLQPEDFATYYCQQYFIYPRTFGQGTKVEIK
notes: Single-mutant His-tagged Fab; also called Y55A
On to B7, for which the binding result in assay [1] is reported as “binds”.

B8: h26D3 variant HC7 Fab (Fab, V domains shown)
VH: EVQLVQSGAEVKKPGSSVKVSCKASGYIFTDYNMDWVRQAPGQGLEWIGDINPDYATTSYNEKFKGRATLTVDKSTSTAYMELSSLRSEDTAVYYCARGGYSGSSYYHPMDYWGQGTLVTVSS
VL: DIQMTQSPSSVSASVGDRVTITCKSSQSLLYSTNQKNYLAWYQQKPGKAPKLLIYWASTRESGVPSRFSGSGSGTDFTLTISSLQPEDFATYYCQQYFIYPRTFGQGTKVEIK
notes: Single-mutant His-tagged Fab; also called D56A
Take B8: the binding result in assay [1] is listed as “binds”.

B9: BA007 (bispecific antibody, human IgG1, kappa)
light: EIVLTQSPLSLSVTLGQSASISCRSSQSLLDSNGKTYLHWFILRPGQSPRRLIYLVSILDSGVPDRFSGSGSGTDFTLKISRVEAEDVGVYYCVQGTHFPFTFGSGTKLEIKRTVAAPSVFIFPPSDEQLKSGTASVVCLLNNFYPREAKVQWKVDNALQSGNSQESVTEQDSKDSTYSLSSTLTLSKADYEKHKVYACEVTHQGLSSPVTKSFNRGEC
heavy 1: not shown
heavy 2: EVQLVQSGAEVVKPGASVRLSCKASGYSFTGFTMNWVRQALGQGLEWMGLINPYNGVTTYNQKFKGRLTMTRDMSTRTVYMDLSSLTYEDTAVYYCTREGNWEGVYWGQGTLVTVSSASTKGPSVFPLAPSSKSTSGGTAALGCLVKDYFPEPVTVSWNSGALTSGVHTFPAVLQSSGLYSLSSVVTVPSSSLGTQTYICNVNHKPSNTKVDKKVEPKSCDKTHTCPPCPAPELLGGPSVFLFPPKPKDTLMISRTPEVTCVVVDVSHEDPEVKFNWYVDGVEVHNAKTKPREEQYNSTYRVVSVLTVLHQDWLNGKEYKCAVSNKALPAPIEKTISKAKGQPREPQVYTLPPCRDELTKNQVSLWCLVKGFYPSDIAVEWESNGQPENNYKTTPPVLDSDGSFFLYSKLTVDKSRWQQGNVFSCSVMHEALHNHYTQKSLSLSPGGGGGSGGGGSGGGGSGGGGSDIQMTQSPSSVSASVGDRVTITCKSSQSLLYSTNQKNYLAWYQQKPGKAPKLLIYWASTRESGVPSRFSGSGSGTDFTLTISSLQPEDFATYYCQQYFIYPRTFGCGTKVEIKGGGGSGGGGSGGGGSGGGGSEVQLVQSGAEVKKPGSSVKVSCKASGYIFTDYNMDWVRQAPGQCLEWIGDINPDADTTSYNEKFKGRATLTVDKSTSTAYMELSSLRSEDSAVYYCARGGYSGSSYYHPMDYWGQGTLVTVKS
Take B9: in the assay with AβpE3-40 monomer, the Kd was 2.1 nM, the koff was found to be 0.00012 s⁻¹ and the kon stood at 54000 M⁻¹ s⁻¹. In assay [2], this molecule registered a Kd of 186 nM, an off-rate constant (koff) of 0.004 s⁻¹ and a kon of 22000 M⁻¹ s⁻¹. Moreover, in assay [3], the dissociation constant Kd amounted to 565 nM, the off-rate (koff) was 0.011 s⁻¹ and the kon worked out at 19000 M⁻¹ s⁻¹.

B10: BA006 (bispecific antibody, human IgG1, kappa)
light: EIVLTQSPLSLSVTLGQSASISCRSSQSLLDSNGKTYLHWFILRPGQSPRRLIYLVSILDSGVPDRFSGSGSGTDFTLKISRVEAEDVGVYYCVQGTHFPFTFGSGTKLEIKRTVAAPSVFIFPPSDEQLKSGTASVVCLLNNFYPREAKVQWKVDNALQSGNSQESVTEQDSKDSTYSLSSTLTLSKADYEKHKVYACEVTHQGLSSPVTKSFNRGEC
heavy 1: not shown
heavy 2: EVQLVQSGAEVVKPGASVRLSCKASGYSFTGFTMNWVRQALGQGLEWMGLINPYNGVTTYNQKFKGRLTMTRDMSTRTVYMDLSSLTYEDTAVYYCTREGNWEGVYWGQGTLVTVSSASTKGPSVFPLAPSSKSTSGGTAALGCLVKDYFPEPVTVSWNSGALTSGVHTFPAVLQSSGLYSLSSVVTVPSSSLGTQTYICNVNHKPSNTKVDKKVEPKSCDKTHTCPPCPAPELLGGPSVFLFPPKPKDTLMISRTPEVTCVVVDVSHEDPEVKFNWYVDGVEVHNAKTKPREEQYNSTYRVVSVLTVLHQDWLNGKEYKCAVSNKALPAPIEKTISKAKGQPREPQVYTLPPCRDELTKNQVSLWCLVKGFYPSDIAVEWESNGQPENNYKTTPPVLDSDGSFFLYSKLTVDKSRWQQGNVFSCSVMHEALHNHYTQKSLSLSPGGGGGSGGGGSGGGGSGGGGSDIQMTQSPSSVSASVGDRVTITCKSSQSLLYSTNQKNYLAWYQQKPGKAPKLLIYWASTRESGVPSRFSGSGSGTDFTLTISSLQPEDFATYYCQQYFIYPRTFGCGTKVEIKGGGGSGGGGSGGGGSGGGGSEVQLVQSGAEVKKPGSSVKVSCKASGYIFTDYNMDWVRQAPGQCLEWIGDINPDADTTSYNEKFKGRATLTVDKSTSTAYMELSSLRSEDTAVYYCARGGYSGSSYYHPMDYWGQGTLVTVKS
In the assay with AβpE3-40 monomer, B10 gave a dissociation constant (Kd) of 2.3 nM, a koff of 0.00012 s⁻¹ and a kon of 52000 M⁻¹ s⁻¹. In assay [2], this molecule yielded a Kd of 189 nM, a koff of 0.0041 s⁻¹ and an on-rate constant (kon) of 22000 M⁻¹ s⁻¹. In assay [3], this molecule gave a dissociation constant (Kd) of 552 nM, a dissociation rate constant (koff) of 0.011 s⁻¹ and an association rate constant (kon) of 20000 M⁻¹ s⁻¹.
